In PMC12644819 (Nature Communications, 2025):
Ends that are not written are not given here.

T1: LptD (E. coli, UniProt P31554 25-784, disulfide bonds Cys31-Cys724 and Cys173-Cys725)
T1 construct: LptD, E. coli outer membrane LPS transporter, β-taco domain plus 26-stranded β-barrel; called full-length LptD in contrast to the β-barrel truncation; Untagged wild-type LptD; also called full-length LptD; endogenous LptD; source: E. coli BW25113, overproduced from pLptDEM^His or pLptDE^His, or endogenous; DDM-solubilised envelope fraction; co-purified (Ni-NTA, SEC)
T1 sequence (looked up): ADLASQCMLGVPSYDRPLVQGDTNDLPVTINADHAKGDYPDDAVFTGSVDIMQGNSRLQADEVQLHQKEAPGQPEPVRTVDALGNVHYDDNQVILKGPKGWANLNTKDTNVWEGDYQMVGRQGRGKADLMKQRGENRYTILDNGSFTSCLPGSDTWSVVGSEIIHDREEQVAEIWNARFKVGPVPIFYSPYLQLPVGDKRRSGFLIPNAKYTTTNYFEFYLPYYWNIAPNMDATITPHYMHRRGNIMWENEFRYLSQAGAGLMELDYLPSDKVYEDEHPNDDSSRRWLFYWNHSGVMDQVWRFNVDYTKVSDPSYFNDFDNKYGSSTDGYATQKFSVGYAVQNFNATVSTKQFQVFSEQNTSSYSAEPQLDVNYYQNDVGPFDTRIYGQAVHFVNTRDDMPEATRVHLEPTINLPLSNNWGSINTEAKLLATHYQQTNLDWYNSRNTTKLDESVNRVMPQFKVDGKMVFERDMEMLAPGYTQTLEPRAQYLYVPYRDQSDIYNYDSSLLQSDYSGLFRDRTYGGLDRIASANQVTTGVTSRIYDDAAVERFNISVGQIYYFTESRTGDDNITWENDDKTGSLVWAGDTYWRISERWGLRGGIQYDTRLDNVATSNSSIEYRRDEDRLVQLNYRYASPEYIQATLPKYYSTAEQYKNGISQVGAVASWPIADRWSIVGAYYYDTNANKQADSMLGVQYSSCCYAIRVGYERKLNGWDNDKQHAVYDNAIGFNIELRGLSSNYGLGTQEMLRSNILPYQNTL

B1: LptY (natural protein, E. coli, UniProt P31063 16-137, looked up)
chain: CAEVENYNNVVKTPAPDWLAGYWQTKGPQRALVSPEAIGSLIVTKEGDTLDCRQWQRVIAVPGKLTLMSDDLTNVTVKRELYEVERDGNTIEYDGMTMERVDRPTAECAAALDKAPLPTPLP
modifications: lipoprotein
notes: LptY (formerly YedD), E. coli OM lipoprotein of ~14 kDa; an AlphaFold2 model was docked; also called YedD; source: endogenous, E. coli BW25113; co-purified with LptDEM^His or LptDE^His (Ni-NTA, SEC)
B2: LptM^His (natural protein, E. coli, UniProt P0ADN6 20-67, looked up)
chain: CGLKGPLYFPPADKNAPPPTKPVETQTQSTVPDKNDRATGDGPSQVNY
modifications: also: lipoprotein, acyl tails on N-terminal Cys, His-tagged (LptM^His)
notes: LptM, E. coli lipoprotein; source: E. coli BW25113, from pLptDEM^His or pLptD^β-barrelEM^His; DDM-solubilised envelope fraction; purified (Ni-NTA, SEC)

Legend:
LptDEM^His = target: T2, LptDEM^His (E. coli, UniProt P31554 25-784; P0ADC1 19-193; P0ADN6 20-67, lipoprotein | lipoprotein); assay: native MS; purified LptDEM^His and LptDE^His complexes; subpopulation with a mass shift of 14,301 Da; re-analysed and new spectra; settings: both partners purified
T2 construct: LptD, E. coli; LptE, E. coli; LptM, E. coli; source: E. coli BW25113 wild type, from pLptDEM^His; purified (Ni-NTA, SEC) in DDM; copies: 1 + 1 + 1

LptDE^His = target: T3, LptDE^His (E. coli, UniProt P31554 25-784; P0ADC1 19-193, lipoprotein); assay: as above; settings: both partners purified
T3 construct: LptD, E. coli; LptE, E. coli; also called core translocon; the translocon; source: E. coli BW25113 (ΔlptM for native MS), from pLptDE^His or derivatives of pLptDME^His; Ni-NTA (and SEC) in DDM; copies: 1 + 1

LptD = target: T1, LptD; assay: affinity purification with mass spectrometry; nickel-affinity chromatography and gel filtration of LptM^His (wild-type cells) or LptE^His (ΔlptM cells) from DDM-solubilised envelope; SDS-PAGE with Coomassie; ~15 kDa band identified by bottom-up mass spectrometry; settings: partners not purified

T2 sequence (P0ADC1 19-193, one chain of several): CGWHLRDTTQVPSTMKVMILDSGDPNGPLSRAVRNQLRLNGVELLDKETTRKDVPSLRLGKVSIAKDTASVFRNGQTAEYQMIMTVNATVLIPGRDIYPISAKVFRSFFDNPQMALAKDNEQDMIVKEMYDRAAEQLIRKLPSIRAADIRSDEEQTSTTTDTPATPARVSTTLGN
T3 sequence (P0ADC1 19-193, one chain of several): as above

Row | Binder | stoichiometry N (LptDEM^His) | stoichiometry N (LptDE^His) | binding result (LptD)
1 | B1 | 1 LptD:LptE:LptM:LptY | 1 LptD:LptE:LptY | –
2 | B2 | – | – | binds
